Sequences and labels used below:
B1: TPR t1 (parent)
chain: GACCAAUCUGCCCUCAGAGCUCGAGAACAUCUUCGGAUGCAGAGGAGGCAGGCUUCGGUGGCGCGAUAGCGCCAACGUCCUCAACCUCCAAUGCAUCCCACCACAUGAUGAUGCCUGAAGAGCCUUGGUUUUUUG

Variants of B1 are the subject of the data set. Briefly: polymerase ribozyme fitness, log enrichment relative to wild type (log ratio); higher = more active; in vitro selection for triplet polymerase activity. The method in brief:
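Mutant libraries of both subunits of a heterodimeric triplet polymerase ribozyme were PCR-built, transcribed, and selected once in triplicate, with frozen incubation at −7 °C and capture of gel-excised extended constructs on streptavidin beads before RT-PCR. Illumina sequencing of input and output libraries was filtered to genotypes with ≥10 input reads and ≥1 read per output. Fitness is the logarithm of genotype enrichment over wild-type enrichment, using inverse-variance-weighted replicate averages. The logarithm is base 2.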
For the variant A5U U21C C72G C97U, the “polymerase ribozyme fitness (log ratio)” value is -1.7.

Turning to A5G C79U, the “polymerase ribozyme fitness (log ratio)” value stood at 0.091.

A5U A6G G45C G69U A95U: the “polymerase ribozyme fitness (log ratio)” value is -2.34.

For A5G G48U G61A U81A C82A G127C, the “polymerase ribozyme fitness (log ratio)” value was -1.97.

For the variant A6C C8G G44C C64U U78C, the “polymerase ribozyme fitness (log ratio)” value is -1.41.

On to A5G C80A, for which the “polymerase ribozyme fitness (log ratio)” value is -2.34.

As to A5U C12U G61A, the “polymerase ribozyme fitness (log ratio)” value was determined as 0.0113.

With A5U C28U C62G, the “polymerase ribozyme fitness (log ratio)” value is -5.59.

With A5U G110C, the “polymerase ribozyme fitness (log ratio)” value is -3.71.

For A5U G44C C70U A84C C104A G117C, the “polymerase ribozyme fitness (log ratio)” value is -7.15.

As for A5U A90G C123U, the “polymerase ribozyme fitness (log ratio)” value worked out at 0.65.

Consider A5U C8G C88U C97U G113C, for which the “polymerase ribozyme fitness (log ratio)” value was -1.99.

A5G C8U G61U C94U: the “polymerase ribozyme fitness (log ratio)” value was 0.251.

Take A5U C11A G63A G93U: the “polymerase ribozyme fitness (log ratio)” value is -2.91.

Take A5G C49G U116G G117C: the “polymerase ribozyme fitness (log ratio)” value is -3.05.

As to A5U U9G G48A U78A, the “polymerase ribozyme fitness (log ratio)” value is -0.963.

In the case of A5G A16C A41G C62U, the “polymerase ribozyme fitness (log ratio)” value was -2.75.

Regarding A5U C56G C70A, the “polymerase ribozyme fitness (log ratio)” value is -3.29.

As for A5U U7A C15U C76A, the “polymerase ribozyme fitness (log ratio)” value is -1.76.

With A5G G10A C72U A91U, the “polymerase ribozyme fitness (log ratio)” value was -2.06.

For A6C C13U A27U C62A C82A, the “polymerase ribozyme fitness (log ratio)” value is -4.43.

In the case of A5G C28A U33G U55A C73U A100C C124A, the “polymerase ribozyme fitness (log ratio)” value is -5.92.

For the variant A5U C64G C124U, the “polymerase ribozyme fitness (log ratio)” value was -6.6.

On to A5U C89G, for which the “polymerase ribozyme fitness (log ratio)” value was -1.4.

A5G C28G U78A U96C G110U: the “polymerase ribozyme fitness (log ratio)” value was -0.656.

With A5C U92A C101U C115A U133G, the “polymerase ribozyme fitness (log ratio)” value is -4.61.

On to A5U A41U C64U G120C, for which the “polymerase ribozyme fitness (log ratio)” value is -1.19.

On to A5G C13U C70U C94G, for which the “polymerase ribozyme fitness (log ratio)” value is -1.73.

For the variant A5U C8G C80A A83U, the “polymerase ribozyme fitness (log ratio)” value is -3.88.

For the variant A5U C13G C89U U92A G120A, the “polymerase ribozyme fitness (log ratio)” value was -2.77.

For A5G G58A G63A, the “polymerase ribozyme fitness (log ratio)” value is -0.764.

For the variant A6C C12A G52U G61A, the “polymerase ribozyme fitness (log ratio)” value is -1.1.

A5U G69U: the “polymerase ribozyme fitness (log ratio)” value is 0.406.

With A5C U14C G60U A100C G135U, the “polymerase ribozyme fitness (log ratio)” value is -4.82.

Consider A5G G63A, for which the “polymerase ribozyme fitness (log ratio)” value was -1.41.

With A5C U112C, the “polymerase ribozyme fitness (log ratio)” value was determined as 0.655.

In the case of A5C U112A, the “polymerase ribozyme fitness (log ratio)” value worked out at 1.05.

Consider A5G U14A, for which the “polymerase ribozyme fitness (log ratio)” value is -1.75.

As for A5U G36C G48U C85U, the “polymerase ribozyme fitness (log ratio)” value is -2.32.

On to A6C A121U, for which the “polymerase ribozyme fitness (log ratio)” value was found to be 1.95.

A5U C8G G19A A43U U54A C70G: the “polymerase ribozyme fitness (log ratio)” value was -4.96.

Consider A5G C13U G44U U96G U133A, for which the “polymerase ribozyme fitness (log ratio)” value is -2.01.

On to A5G C12U G39U, for which the “polymerase ribozyme fitness (log ratio)” value is -0.29.

Take A5G U109G C123G U130C: the “polymerase ribozyme fitness (log ratio)” value is -4.03.

As for A5U U9A U32C A37U C49U G69A G93A, the “polymerase ribozyme fitness (log ratio)” value was -4.95.

A5G A46U C56U C73G: the “polymerase ribozyme fitness (log ratio)” value was -2.61.

As for A5U U33G C76A C80A A83C G113U A119U, the “polymerase ribozyme fitness (log ratio)” value was -6.4.

In the case of A5G A6C, the “polymerase ribozyme fitness (log ratio)” value was -0.0257.

For A6C C11A C72G C85U U112G, the “polymerase ribozyme fitness (log ratio)” value was -2.46.

As for A5U C8U C101G, the “polymerase ribozyme fitness (log ratio)” value is -1.15.

For the variant A5G C12A C72G U87A C115G U131C, the “polymerase ribozyme fitness (log ratio)” value is -3.53.

Consider A5G C8U U38G U106A C114A, for which the “polymerase ribozyme fitness (log ratio)” value is -1.52.

As to A5U G69U G110A, the “polymerase ribozyme fitness (log ratio)” value is -0.583.

As to A5G U9C C124U, the “polymerase ribozyme fitness (log ratio)” value worked out at 1.89.

Consider A5U G42U A46G C72U U78G, for which the “polymerase ribozyme fitness (log ratio)” value was -1.17.

For A5G A37C G58U G60U U87A, the “polymerase ribozyme fitness (log ratio)” value was -1.82.

With A5U C22G, the “polymerase ribozyme fitness (log ratio)” value was -3.43.

With A5U U14A C53U U112A, the “polymerase ribozyme fitness (log ratio)” value is 0.0341.

Take A5U C8U G93A A105G: the “polymerase ribozyme fitness (log ratio)” value was -2.84.

For the variant A5C U92G, the “polymerase ribozyme fitness (log ratio)” value was -4.05.

As to A5G G10U G42U, the “polymerase ribozyme fitness (log ratio)” value was -1.51.

Take A5G G45A C49A G69U G93A U130G U131A: the “polymerase ribozyme fitness (log ratio)” value is -2.39.

Regarding A6C C40A C70G, the “polymerase ribozyme fitness (log ratio)” value is -5.35.

As to A5U U54G C79A G110C, the “polymerase ribozyme fitness (log ratio)” value was -6.31.

In the case of A5C U55C G120U C123G U131A, the “polymerase ribozyme fitness (log ratio)” value was found to be 0.062.

A5U C72U G113U G120U U130C: the “polymerase ribozyme fitness (log ratio)” value is -4.48.

As for A5U C49U C70U, the “polymerase ribozyme fitness (log ratio)” value was -1.06.

Consider A5G A43G G63A U112G, for which the “polymerase ribozyme fitness (log ratio)” value is -5.31.

As to A5U A46C C73A C98U, the “polymerase ribozyme fitness (log ratio)” value was -1.57.

With A5C U87C C88A G120U, the “polymerase ribozyme fitness (log ratio)” value is -0.6.

As to A5U C13U G47A G63U A91U U109C G127C, the “polymerase ribozyme fitness (log ratio)” value is -6.28.

Regarding A6C C11U G63C, the “polymerase ribozyme fitness (log ratio)” value was -1.94.

Turning to A5U G60A U78A C97U, the “polymerase ribozyme fitness (log ratio)” value was -1.08.

For A5G G113A, the “polymerase ribozyme fitness (log ratio)” value is -0.636.

With A6C C13A G48C C49G C85A U92C, the “polymerase ribozyme fitness (log ratio)” value was -4.52.

In the case of A6C C40A C62U C88A C104A, the “polymerase ribozyme fitness (log ratio)” value is -5.43.

Regarding A5U A6G C53U G117A U129A, the “polymerase ribozyme fitness (log ratio)” value was -2.59.

On to A5C U87G U96G C104U A121C, for which the “polymerase ribozyme fitness (log ratio)” value is 0.96.

On to A5U A84U C97U, for which the “polymerase ribozyme fitness (log ratio)” value is -1.7.

Take A5G G44A G71U A83C C86U: the “polymerase ribozyme fitness (log ratio)” value is -1.87.

In the case of A6C A37G G47C C64U U87A G120C C124G, the “polymerase ribozyme fitness (log ratio)” value is -2.79.

As for A5U G39A G60U C70U, the “polymerase ribozyme fitness (log ratio)” value was -2.4.

In the case of A5U G48C, the “polymerase ribozyme fitness (log ratio)” value was -2.24.

For the variant A5G A121C, the “polymerase ribozyme fitness (log ratio)” value is 0.258.

For the origin of these results see the RNAGym collection of RNA variant scans (doi:10.1073/pnas.2313332121).
